According to paper PMC3852654:

Columns and labels:
[1] = target: Rap1a (resistance-associated protein 1a, immunity protein of Ssp1), without N-terminal periplasmic targeting sequence (Serratia marcescens); test: SEC; Rap1a alone in solution (Supplementary Fig. S1)
[2] = target: Rap1a (resistance-associated protein 1a, immunity protein of Ssp1), without N-terminal periplasmic targeting sequence (Serratia marcescens); test: crystal structure; Rap1a alone; reservoir 25% PEG 3350, 100 mM bis-tris pH 5.5; about 2.0 A; two molecules in the asymmetric unit
[3] = target: Rap2a (resistance-associated protein 2a, immunity protein of Ssp2), without N-terminal periplasmic targeting sequence (Serratia marcescens); test: crystal structure; Rap2a alone, 13.5 mg/ml; reservoir 25% PEG 1000, 0.1 M MES pH 6.5; 1.9 A; four molecules in the asymmetric unit

Substance	stoichiometry N [1]	stoichiometry N [2]	stoichiometry N [3]
Rap1a (resistance-associated protein 1a, immunity protein of Ssp1), without N-terminal periplasmic targeting sequence (natural protein)	2	2	–
Rap2a (resistance-associated protein 2a, immunity protein of Ssp2), without N-terminal periplasmic targeting sequence (natural protein)	–	–	2
